Measurements as given in patent US20170008955A1 (CNJ, published 2017).

How the values were obtained:
[1] = target: T1, cSNK:BSA conjugate (bovine, head-to-tail cyclized; conjugated to BSA carrier); experiment: BLI 2:1 fit, site 1; 12.5 nM row
T1 construct: also called BSA-cSNK
Experimental: (§1) Biolayer interferometry (Octet […], ForteBio) was used to qualitatively/quantitatively assess the interactions between humanized versions of 5E3 and cSNK:BSA conjugate. […] MAbs were loaded onto sensors and then washed in PBST. Each sensor was associated with one of several cSNK:BSA standards (100 nM to 0 nM) and then washed in PBST. Data was processed statistically using ForteBio Data Analysis software to determine the strength of antigen-antibody binding (KD). For each mAb analyzed, a 2:1 model provided the “best fit”.

[2] = target: T1, cSNK:BSA conjugate; experiment: BLI 2:1 fit, site 2 (kon2); 12.5 nM row
Experimental: as §1

[3] = target: T1, cSNK:BSA conjugate; experiment: BLI 2:1 fit, site 2 (kdis2); 3.13 nM row
Experimental: as §1

[4] = target: T1, cSNK:BSA conjugate; experiment: BLI 2:1 fit, site 2 (kdis2); 6.25 nM row
Experimental: as §1

[5] = target: T1, cSNK:BSA conjugate; experiment: BLI 2:1 fit, site 2 (kdis2); 1.56 nM row
Experimental: as §1

[6] = target: T2, Ovalbumin (UniProt P01012 2-386); experiment: Western blot of BSA, BSA-cSNK and ovalbumin probed with hu5E3-IgG1
T2 sequence (looked up): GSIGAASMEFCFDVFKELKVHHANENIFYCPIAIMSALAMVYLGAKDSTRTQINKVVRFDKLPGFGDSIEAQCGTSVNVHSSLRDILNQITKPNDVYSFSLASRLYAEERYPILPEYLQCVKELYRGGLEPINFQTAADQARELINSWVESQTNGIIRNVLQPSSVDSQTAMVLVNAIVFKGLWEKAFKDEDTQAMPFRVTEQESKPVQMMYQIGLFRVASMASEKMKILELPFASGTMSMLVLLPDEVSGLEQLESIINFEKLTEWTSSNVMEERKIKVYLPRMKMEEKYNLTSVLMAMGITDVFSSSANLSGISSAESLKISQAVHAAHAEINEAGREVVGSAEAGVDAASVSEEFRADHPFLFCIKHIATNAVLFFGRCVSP

[7] = target: T3, Aβ42 oligomers (UniProt P05067 672-713); experiment: Biacore (SPR), Aβ oligomer preparation AβO1 (HQ AβO1); upper end of the range
T3 construct: domain: Aβ42; immobilized preparation containing monomers, low and high molecular weight oligomers; also called Amyloid beta oligomers; Aβ oligomers
Experimental: (§2) Using a Biacore™ 3000, Aβ42 oligomers were immobilized (containing monomers, low and high molecular weight oligomers) and BSA (reference surface) on 4 separate flow cells of a biosensorchip. Murine 5E3 or humanized 5E3 IgG1, IgG2, and IgG4 were then diluted, sequentially injected over the different immobilized peptides and antibody binding monitored in real time. Binding data was collected by sequentially injecting buffer blanks, 1/10 dilutions of m5E3 or 1 uM dilutions of hu5E3 control over separate flow cells immobilized with BSA or Aβ42 oligomer on another biosensor chip at a flow rate of 10 μl/minute. Association was allowed for 200 seconds, followed by dissociation for 500 seconds and binding responses collected 10 seconds before the end of the […]. All binding responses were double-referenced by subtracting buffer blanks and BSA reference surface binding.
(§3) Results: As shown in FIG. 9A and FIG. 9B, the humanized 5E3 isotypes bound to the Aβ42 oligomer preparation. Affinity constants were determined for hu5E3 IgG1 Aβ42 oligomer preparations.

[8] = target: T3, Aβ42 oligomers; experiment: Biacore (SPR), Aβ oligomer preparation AβO1' (HQ AβO1'); upper end of the range
Experimental: as §2, §3

[9] = target: T1, cSNK:BSA conjugate; experiment: BLI 2:1 fit, site 1; 100 nM row
Experimental: as §1

[10] = target: T1, cSNK:BSA conjugate; experiment: BLI 2:1 fit, site 2 (KD2); 100 nM row
Experimental: as §1

[11] = target: T2, Ovalbumin; experiment: Western blot of BSA, BSA-cSNK and ovalbumin probed with m5E3
Experimental: (§4) A 4-12% gradient SDS-PAGE gel was run with cSNK-BSA. The gel was then transferred to a nitrocellulose membrane. The next day the mAbs (1° Ab) were diluted to 2 μg/ml to 5 μg/ml depending on the antibody, and used to probe the membrane at room temperature (RT). The membranes were then probed with anti-mouse IgG-HRP (2° Ab).

[12] = target: T1, cSNK:BSA conjugate; experiment: BLI (Octet RED96), 2:1 kinetics, KD2, summary table; KD2, summary table
Experimental: as §1
Table 7 summarizes the affinity constants of humanized 5E3 IgG1, IgG2 and IgG4 constructs. The KD ranges were determined using 2:1 kinetics of binding of analyte (BSA-cSNK) in solution to two different binding sites on the surface (immobilized bivalent, monospecific 5E3) in comparison to murine 5E3 using biolayer interferometry (Octet RED96).

[13] = target: T2, Ovalbumin; experiment: Western immunoblot, FIGS. 3A-D
Experimental: as §4

[14] = target: T1, cSNK:BSA conjugate; experiment: BLI 2:1 fit, site 1 (KD1); 25 nM row
Experimental: as §1

[15] = target: T1, cSNK:BSA conjugate; experiment: BLI 2:1 fit, site 1 (KD1); 100 nM row
Experimental: as §1

[16] = target: T1, cSNK:BSA conjugate; experiment: BLI 2:1 fit, site 1 (KD1); 1.56 nM row
Experimental: as §1

[17] = target: T1, cSNK:BSA conjugate; experiment: BLI 2:1 fit, site 1 (KD1); 3.13 nM row
Experimental: as §1

[18] = target: T1, cSNK:BSA conjugate; experiment: BLI 2:1 fit, site 1 (KD1); 6.25 nM row
Experimental: as §1

T1 sequence (P02769 25-607 limits assumed): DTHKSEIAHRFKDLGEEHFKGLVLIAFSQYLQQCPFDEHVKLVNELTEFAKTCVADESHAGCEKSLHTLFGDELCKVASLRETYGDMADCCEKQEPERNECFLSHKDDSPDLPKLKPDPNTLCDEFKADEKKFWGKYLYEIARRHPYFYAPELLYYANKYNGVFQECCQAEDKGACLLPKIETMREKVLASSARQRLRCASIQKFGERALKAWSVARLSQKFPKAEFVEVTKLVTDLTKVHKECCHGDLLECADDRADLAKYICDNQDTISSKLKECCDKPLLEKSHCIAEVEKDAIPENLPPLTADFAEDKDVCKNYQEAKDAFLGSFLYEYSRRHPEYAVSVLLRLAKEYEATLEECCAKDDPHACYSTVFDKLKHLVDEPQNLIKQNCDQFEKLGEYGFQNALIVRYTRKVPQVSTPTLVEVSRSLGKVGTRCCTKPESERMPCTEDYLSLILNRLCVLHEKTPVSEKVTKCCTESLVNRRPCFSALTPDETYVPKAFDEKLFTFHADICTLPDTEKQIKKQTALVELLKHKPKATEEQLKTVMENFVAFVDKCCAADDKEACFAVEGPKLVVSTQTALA
T3 sequence (P05067 672-713 limits assumed): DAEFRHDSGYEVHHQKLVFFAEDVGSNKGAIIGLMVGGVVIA

Kd [1]	koff [1]	kon [1]	kon [2]	koff [3]	koff [4]	koff [5]	Kd [9]	koff [9]	kon [9]	Kd [10]	binding result [13]	also measured	Binder
0.000463 µM	0.000825 s⁻¹	1.78e+06 M⁻¹ s⁻¹	6.56e+06 M⁻¹ s⁻¹	0.012 s⁻¹	0.012 s⁻¹	0.012 s⁻¹	–	–	–	–	–	binding result [6]: no binding; Kd [7]: ≤ 3290 µM; Kd [8]: ≤ 51.7 µM	hu5E3-IgG1 (antibody, V domains shown, human IgG1/kappa; also called humanized 5E3 IgG1; IHA variant) VH: QVQLQQSGPEVKKPGASVKISCKASGYIFTSYYIQWVIHAPGQGLEWIGWIYPGNVNTKYNEKFKGKATLTADKSSSTAYMELSSLTSEDTAVYFCARMDYEAHYWGQGTTVTVSS VL: DIQMTQSPSSLSASVGDRVTITCRASQEISGYLTWLQQKPEGAIKRLIYAASTLDSGVPKRFSGSRSGSDYSLTISSLQPEDFATYNCLQYANYPRTFGGGTKLEIK
0.00033 µM	0.000428 s⁻¹	1.29e+06 M⁻¹ s⁻¹	1.42e+07 M⁻¹ s⁻¹	0.0226 s⁻¹	0.0226 s⁻¹	0.0226 s⁻¹	0.00033 µM	0.000428 s⁻¹	1.29e+06 M⁻¹ s⁻¹	0.00159 µM	–	binding result [11]: no binding; Kd [12]: 0.00159 µM	murine monoclonal antibody 5E3 (antibody, V domains shown, mouse antibody of the 5E3 hybridoma; also called murine 5E3; m5E3) VH: QVQLQQSGPELVKPGASVRISCKASGYIFTSYYIQWVIHRPGQGLEWIGWIYPGNVNTKYNEKFKGKATLTADKSSSTAYMQLSRLTSEDSAVYFCARMDYEAHYWGQGTTLTVSS VL: DIQMTQSPSSLSASLGERVSLTCRASQEISGYLTWLQQKPDGTIKRLIYAASTLDSGVPKRFSGSRSGSDYSLTISSLESEDFADYNCLQYANYPRTFGGGTKLEIK
0.00118 µM	0.000762 s⁻¹	644000 M⁻¹ s⁻¹	5.28e+06 M⁻¹ s⁻¹	0.0338 s⁻¹	0.0338 s⁻¹	–	0.00118 µM	0.000762 s⁻¹	644000 M⁻¹ s⁻¹	0.00639 µM	no binding	–	hu5E3-IgG2 (antibody, V domains shown, human IgG2/kappa; also called humanized 5E3 IgG2) VH: QVQLQQSGPEVKKPGASVKISCKASGYIFTSYYIQWVIHAPGQGLEWIGWIYPGNVNTKYNEKFKGKATLTADKSSSTAYMELSSLTSEDTAVYFCARMDYEAHYWGQGTTVTVSS VL: DIQMTQSPSSLSASVGDRVTITCRASQEISGYLTWLQQKPEGAIKRLIYAASTLDSGVPKRFSGSRSGSDYSLTISSLQPEDFATYNCLQYANYPRTFGGGTKLEIK
0.000633 µM	0.00055 s⁻¹	868000 M⁻¹ s⁻¹	7.52e+06 M⁻¹ s⁻¹	0.0229 s⁻¹	0.0229 s⁻¹	0.0229 s⁻¹	0.000633 µM	0.00055 s⁻¹	868000 M⁻¹ s⁻¹	0.00304 µM	no binding	–	hu5E3-IgG4 (antibody, V domains shown, human IgG4/kappa; also called humanized 5E3 IgG4) VH: QVQLQQSGPEVKKPGASVKISCKASGYIFTSYYIQWVIHAPGQGLEWIGWIYPGNVNTKYNEKFKGKATLTADKSSSTAYMELSSLTSEDTAVYFCARMDYEAHYWGQGTTVTVSS VL: DIQMTQSPSSLSASVGDRVTITCRASQEISGYLTWLQQKPEGAIKRLIYAASTLDSGVPKRFSGSRSGSDYSLTISSLQPEDFATYNCLQYANYPRTFGGGTKLEIK
–	0.000386 s⁻¹	692000 M⁻¹ s⁻¹	4.44e+06 M⁻¹ s⁻¹	0.0175 s⁻¹	0.0175 s⁻¹	0.0175 s⁻¹	–	0.000386 s⁻¹	692000 M⁻¹ s⁻¹	0.00394 µM	–	Kd [14]: 0.000557 µM; Kd [15]: 0.000557 µM; Kd [16]: 0.000557 µM; Kd [17]: 0.000557 µM; Kd [18]: 0.000557 µM	rehu5E3-IgG4 (antibody, V domains shown, human IgG4/kappa; also called IgG4 rehu version) VH: QVQLQQSGPEVVKPGASVKISCKASGYIFTSYYIQWVIHAPGQGLEWIGWIYPGNVNTKYNEKFKGKATLTADKSSSTAYMELSSLRSEDSAVYFCARMDYEAHYWGQGTLVTVSS VL: DIQMTQSPSSLSASLGDRVTLTCRASQEISGYLTWLQQKPEKAIKRLIYAASTLDSGVPKRFSGSRSGSDYTLTISSLQPEDFADYNCLQYANYPRTFGGGTKLEIK
